We go through one substance from article PMC6832617.

Assay [1] addresses recombinant His-tagged NS1 protein of West Nile virus strain IS-98-ST1 (NS1^WNV) (West Nile virus, strain IS-98-ST1). The assay can be described thus: negative-stain electron microscopy.
For assay [2] the target is unchanged. The assay can be described thus: SDS-PAGE without heat denaturation + Western blot. On the technique in general: Immunoblotting shows a protein as a band on a membrane.

With “recombinant His-tagged NS1 protein of West Nile virus strain IS-98-ST1 (NS1^WNV) (natural protein)”, the stoichiometry N – broadly, the number of molecules, sites or subunits per partner or assembly – in assay [1] came out at 6; in assay [2], 2.
